Patent publication US20240342207, “MODIFIED NUCLEIC ACID COMPOSITIONS AND ASSOCIATED METHODS FOR TREATMENT OF PHENYLKETONURIA” (BOARD OF REGENTS, THE UNIVERSITY OF TEXAS SYSTEM, published 2024)
Residue numbers refer to the chain shown, from its start.

How the values were obtained:
Conditions in all cases: tags: His-tag, E. coli; stem-loop
[1] = molecular target: T1, PAH N207S (Homo sapiens, UniProt P00439 P00439:1-452, N207S); test: EMSA; also decreased affinity in quantified assay
T1 sequence: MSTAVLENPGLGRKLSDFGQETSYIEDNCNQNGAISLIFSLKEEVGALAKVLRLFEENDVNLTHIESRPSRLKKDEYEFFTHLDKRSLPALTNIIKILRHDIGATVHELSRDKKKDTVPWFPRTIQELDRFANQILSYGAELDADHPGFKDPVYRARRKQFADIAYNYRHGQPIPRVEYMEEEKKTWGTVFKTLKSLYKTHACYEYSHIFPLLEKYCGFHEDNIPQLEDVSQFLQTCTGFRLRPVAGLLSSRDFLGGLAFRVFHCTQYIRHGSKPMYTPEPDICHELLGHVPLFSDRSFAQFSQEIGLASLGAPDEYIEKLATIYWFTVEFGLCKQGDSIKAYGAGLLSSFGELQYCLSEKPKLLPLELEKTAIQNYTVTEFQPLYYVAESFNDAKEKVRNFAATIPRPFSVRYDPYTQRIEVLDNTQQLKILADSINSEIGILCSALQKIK
Description: (§1) It was reasoned that supplementing lncRNAs might improve the catalytic activities of the PAH mutants, leading to reduced serum Phe concentrations and improved symptoms in patients with PKU. Scramble (Scr) and HULC mimics representing wild-type HULC nt. 181-201 and HULC A191G mutated sequences were designed for the following studies. 17 PAH mutants that were identified from patients with PKU and are known to affect the enzymatic activity of PAH (21, 22) were selected, and bacterially-expressed wild-type and mutant PAH (FIG. 10 and see FIG. S13A in Li et al. 2021) were collected. […] The denatured wild-type PAH proteins were included as a negative control.
(§2) RNA Electrophoretic Mobility Shift Assay (EMSA). The gel mobility shift assay was performed as previously described (42). Briefly, 500 ng recombinant His-tagged wild-type PAH or mutants were incubated with 0.035 μmol labeled probe in a RNA-protein binding buffer [(50 mM Tris-HCl 7.9, 10% glycerol, 100 mM KCl, 5 mM MgCl₂, 10 mM (3-ME, 0.1% NP40] for 30 min at 30° C. For cold RNA competition, 0.035 μmol radiolabeled RNA probes were first mixed with 7 μmol cold RNA competitors and then subjected to the gel shift assay.

[2] = molecular target: T2, PAH S349L (Homo sapiens, UniProt P00439 P00439:1-452, S349L); test: EMSA; also decreased affinity in quantified assay
T2 sequence: T1 sequence with S207N, S349L
Description: as §1, §2

[3] = molecular target: T3, PAH A47V (Homo sapiens, UniProt P00439 P00439:1-452, A47V); test: EMSA; one of 13 of 17 binding mutants; affinity not decreased
T3 sequence: T1 sequence with A47V, S207N

[4] = molecular target: T4, PAH F39L (Homo sapiens, UniProt P00439 P00439:1-452, F39L); test: as above
T4 sequence: T1 sequence with F39L, S207N

B1: HULC 181-201 mimic (ssRNA)
RNA: CAAAAUGCAUAUGUAUCUUUG
[1]
  binding result: no binding
[2]
  binding result: no binding
[3]
  binding result: binds
[4]
  binding result: binds
